Assay results from article PMC12167710 (Nature Biotechnology, 2024).

B1: hRBD9 (antibody, V domains shown)
VH: EVQLVESGGGLIQPGGSLRLSCAASGLTVSSNYMNWVRQAPGKGLEWVSVLYSGGSTYYADSVKGRFTISRDNSKNTLYLQMNSLRAEDTAVYYCARDLVAYGMDVWGQGTTVTVSS
VL: DIQLTQSPSFLSASVGDRVTITCRASQGISSDLAWYQQKPGKAPKLLIYAASTLQSGVPSRFSGSGSGTEFTLTISSLQPEDFATYYCQQLNSYPTFGQGTRLEIK
B2: hRBD12 (antibody, V domains shown)
VH: EVQLVESGGGLVQPGGSLRLSCAASGLTVSSNYMSWVRQAPGKGLEWVSVIYSGGSTYYADSVKGRFTISRDNSKNTLYLLMNSLRAEDTAVYYCARDLQQLGGMDVWGQGTTVTVSS
VL: not shown
B3: hRBD13 (antibody, V domains shown)
VH: QVQLVESGGGVVQPGRSLRLSCAVSGFTFRNYGMDWVRQAPGKGLEWVAVISYDGSNKYYADSVKGRFTISRDNSKNTLFLHLNSLRAEDTAVYYCAKAGGGPYCGGGNCYMHYFDYWGQGTQVTVSS
VL: DIQMTQSPSSLSASVGDRVTITCQASQDINNYLNWYQQKPGKAPKLLIYDASNLETGVPLRFSGSGSATHFSFTISSLQPEDIATYYCQQYDHLPCTFGQGTKLEIR
B4: hRBD15 (antibody, V domains shown)
VH: QVQLVQSGAEVKKPGASVKVSCKASGYTFTSQYMHWVRQAPGQGLEWMGIINPSGGSTSYAQKFQGRVTMTSDTSTSTVYMELSSLRSEDTAVYYCARDIYFVPARGGFDPWGQGTLVTVSS
VL: EIVLTQSPGTLSLSPGERATLSCRASQSIISSYLAWYQQKPGQAPRLLIYGASSRATGIPDRFSGSGSGTDFTLTISRLEPEDFAVYYCQQSGSAPRYTFGQGTKLEIK

target: T1, receptor-binding domain (RBD) of the wild-type SARS-CoV-2 spike protein (SARS-CoV-2, UniProt P0DTC2 333-527); assay: cell-based or functional assay; conditions: not given

Row | Binder | other [ng/mL]
1 | B1 | 20.2
2 | B2 | 20.8
3 | B3 | 48600
4 | B4 | 64400

target: T1, receptor-binding domain (RBD) of the …; assay: BLI; conditions: both partners purified

Row | Binder | Kd [nM]
5 | B1 | 0.126
6 | B2 | 0.219
7 | B3 | < 0.001
8 | B4 | 0.0382
